As a reminder, the pKd is the Kd on a negative log10 scale, so that one unit is a factor of ten. A high value points to a small Kd.

pKd: −log10 of the molar value.

Consider 6 sequences from US20210403913.

Data set [1] addresses CXCL8 (IL-8) (Homo sapiens) (UniProt P10145). The data set is described as follows: SPR. The conditions noted are these: L-RNA, CXCL8 immobilised.
The target of data set [2] is D-CXCL8 (mirror-image human CXCL8) (synthetic (human sequence)) (UniProt P10145). The data set is described as follows: pulldown. The settings on record: direct pull-down, 37 C.
For data set [3] the target is unchanged. Put plainly: competition. The conditions noted are these: competition pull-down vs labelled 315-F8-001; 37 C.

“CUGACGGAAGUACGUGGAAAGCCGAAAGUGUGUCCCGGUCAG [315-F8-002 (L)]”: the values for the pKd in data set [1] (25 C) and in data set [1] (37 C) were 9.66 and 9.12, respectively.

As for “GCUGACGGAAGUACGUGGAAAGCCGAAAGUGUGUCCCGGUCAGC [315-F8-001 (D)]”, the pKd in data set [2] (20 mM Tris pH 7.4, 150 mM NaCl, 5 mM KCl, 1 mM MgCl2, 1 mM CaCl2, yeast RNA) is 9.10.

Sequence “CUGACGGAAGUACGUGGAAAGCCGAAAGUGUGUCCCGGUCAG [315-F8-002 (D)]” showed a pKd in data set [3] of 8.96.

Regarding “GCUGACGGAAGUACGUGGAAAGCCGAAAGUGUGUCCCGGUCAGC [315-F8-001 (L)]”, the pKd in data set [1] (25 C, 20 mM Tris pH 7.4, 150 mM NaCl, 5 mM KCl, 1 mM MgCl2, 1 mM CaCl2) was 9.66; in data set [1] (37 C) it was 9.17.

As to “CUGACGGAAGUACGUGGAAAGCCGAAAGUGUGUCCCGGUCAG [315-F8-002-PEG (AON-S08)]”, the negative-log Kd (pKd) in data set [1] (5'-aminohexyl linker with 40 kDa Y-shape PEG, 25 C) is 9.70; in data set [1] (5'-aminohexyl linker with 40 kDa Y-shape PEG, 37 C), 9.10.

In turn, “GCUGACGGAAGUACGUGGAAAGCCAAUGAGUGUGUCCCGGUCAGC [315-H9-001 (D)]” showed a pKd in data set [2] of 8.77.
